The text below walks through data of WO2012175740A1.

The assay concerns the target cyno IgE c(epsilon)2-c(epsilon)3-c(epsilon)4 Fc fragment with C-terminal (His)10 tag (cynomolgus monkey). In words: Alphascreen, competition with HuFc(epsilon)RI(alpha)Fc for cyno IgE Fc. A general note: Alpha assays give light when donor and acceptor beads are brought close together.

As a reminder, the % inhibition is how much of the control response was suppressed. A low value points to a weak effect.

Sequence of cyno IgE c(epsilon)2-c(epsilon)3-c(epsilon)4 Fc fragment with C-terminal (His)10 tag (cynomolgus monkey) (chain, as listed by the source): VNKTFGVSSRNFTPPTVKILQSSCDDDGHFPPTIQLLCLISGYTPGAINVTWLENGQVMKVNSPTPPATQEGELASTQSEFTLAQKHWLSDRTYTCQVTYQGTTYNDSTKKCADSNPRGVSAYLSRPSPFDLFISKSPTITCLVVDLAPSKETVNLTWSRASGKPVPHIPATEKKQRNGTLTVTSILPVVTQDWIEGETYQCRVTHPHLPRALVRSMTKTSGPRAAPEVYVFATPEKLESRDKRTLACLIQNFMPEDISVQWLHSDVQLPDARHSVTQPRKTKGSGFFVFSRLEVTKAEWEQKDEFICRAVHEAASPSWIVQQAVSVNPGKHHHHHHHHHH

B1: Nanobody 39B2 (VHH, not shown: small tags and cut ends)
VHH: EVQLVESGGGLVQPGGSLRLSCAASGFTFGSYDMSWVRQAPGKGPEWVSAINSGGGSTYYADSVKGRFTISRDNAKNTLYLQMNSLKPEDTAVYYCSTDLGPWIEGTMEEYEYEYWGQGTQVTVSS
B1 returned a % inhibition at 250 nM Nanobody of 38%.
